In PMC11900463:
Where a chain is given by its changes, count along the chain named. Names and notes keep the numbering of the source. Each block holds one molecule with its values, some of them ahead of it.

Molecular target: T1, sCPR (truncated soluble form of rat NADPH–cytochrome P450 reductase) (rat) (UniProt P00388)
T1 sequence (P00388 whole entry, looked up): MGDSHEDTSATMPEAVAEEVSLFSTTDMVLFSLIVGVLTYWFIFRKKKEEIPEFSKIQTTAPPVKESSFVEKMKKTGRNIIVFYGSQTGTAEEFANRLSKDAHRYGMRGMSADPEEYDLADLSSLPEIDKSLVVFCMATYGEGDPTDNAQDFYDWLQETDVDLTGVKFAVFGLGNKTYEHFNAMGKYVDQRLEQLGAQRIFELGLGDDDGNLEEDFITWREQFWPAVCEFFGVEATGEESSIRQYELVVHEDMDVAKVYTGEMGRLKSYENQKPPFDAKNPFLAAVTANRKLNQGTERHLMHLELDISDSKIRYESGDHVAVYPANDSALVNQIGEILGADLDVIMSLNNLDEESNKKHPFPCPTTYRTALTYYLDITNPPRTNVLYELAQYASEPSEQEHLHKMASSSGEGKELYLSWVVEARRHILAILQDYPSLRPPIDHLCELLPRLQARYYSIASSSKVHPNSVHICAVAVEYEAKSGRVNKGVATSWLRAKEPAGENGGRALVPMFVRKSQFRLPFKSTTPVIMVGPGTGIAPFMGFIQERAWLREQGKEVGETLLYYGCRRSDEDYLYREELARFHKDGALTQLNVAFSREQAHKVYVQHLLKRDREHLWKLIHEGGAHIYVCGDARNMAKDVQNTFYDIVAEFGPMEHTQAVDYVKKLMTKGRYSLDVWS

- apparent reduction rate constant of heme by sCPR (formation of the CO-bound heme complex, CO-saturated, anaerobic, 30 °C; non-His-tagged enzyme): 106 min⁻¹
- enzymatic activity (rate of bilirubin formation at 37 °C with 2.9 μM sCPR, 40 μM heme, NADPH; non-His-tagged enzyme): 14.3 min⁻¹
Molecule: 6xHis-tagged ΔHRM tsHO-2 (from UniProt P23711 29-292) (enzyme)

- apparent reduction rate constant of heme by sCPR (formation of the CO-bound heme complex, CO-saturated, anaerobic, 30 °C; non-His-tagged enzyme): 89.6 min⁻¹
- enzymatic activity (rate of bilirubin formation at 37 °C with 2.9 μM sCPR, 40 μM heme, NADPH; non-His-tagged enzyme): 7.32 min⁻¹
B1: 6xHis-tagged C281S tsHO-2 (enzyme)
chain: MADLSELLKEGTKEAHDRAENTQFVKDFLKGNIKKELFKLATTALYFTYSALEEEMDRNKDHPAFAPLYFPTELHRKEALIKDMEYFFGENWEEQVKCSEAAQKYVDRIHYVGQNEPELLVAHAYTRYMGDLSGGQVLKKVAQRALKLPSTGEGTQFYLFEHVDNAQQFKQFYRARMNALDLSMKTKERIVEEANKAFEYNMQIFSELDQAGSMLTKETLEDGLPVHDGKGDVRKCPFYAAQPDKGTLGGSNSPFRTAMAVLRK

- apparent reduction rate constant of heme by sCPR (formation of the CO-bound heme complex, CO-saturated, anaerobic, 30 °C; non-His-tagged enzyme): 113 min⁻¹
- enzymatic activity (rate of bilirubin formation at 37 °C with 2.9 μM sCPR, 40 μM heme, NADPH; non-His-tagged enzyme): 11.2 min⁻¹
B2: 6xHis-tagged C264S/C281S tsHO-2 (enzyme)
chain: B1 chain with C236S

- apparent reduction rate constant of heme by sCPR (formation of the CO-bound heme complex, CO-saturated, anaerobic, 30 °C; non-His-tagged enzyme): 93.2 min⁻¹
- enzymatic activity (rate of bilirubin formation at 37 °C with 2.9 μM sCPR, 40 μM heme, NADPH; non-His-tagged enzyme): 4.91 min⁻¹
B3: 6xHis-tagged C264S tsHO-2 (enzyme)
chain: B1 chain with C236S, S253C
